Data as given in US20090304651A1 (published 2009).

Key:
[1] = biological target: T1, recombinant human IGF-II (Insulin-like Growth Factor II) (human, UniProt P01344 25-91, biotinylated (Biotinyl-IGF-II, GroPep) where immobilised in SPR, site not stated; not biotinylated in ITC and as SPR analyte); assay: SPR, IGF-II immobilised, kinetic fit
T1 construct: also called IGF2; IGF-2
Procedure: (§1) Kinetic analysis by Surface Plasmon Resonance (SPR) was conducted on a BIAcore 3000 biosensor (BIAcore, Uppsala, Sweden) at 25° C. in HBS-EP (10 mM HEPES, pH 7.4, 150 mM NaCl, 3 mM EDTA, 0.005% surfactant P20) at a flow rate of 40 μl/min. […] Kinetic experiments consisted of a two minute injection of analyte followed by a 100 s dissociation phase in running buffer, after which the binding surface was regenerated with a 2 minute injection of 2 M MgCl₂. A blank flow cell was used for in-line reference subtraction of changes due to differences in refractive index of running buffer versus sample and a buffer-only injection was used to subtract instrument noise and drift. Injections were performed in duplicate for each concentration and in a randomised order. Kinetic parameters were determined by global fitting of sensorgrams to a two-state (conformational change) binding model using BIAevaluation software version 4.0.1. In all cases the minor component made an insignificant contribution to the overall affinity and as such only the kinetic parameters of the major binding component were used. For each interaction the dissociation affinity constant (KD) was also calculated by fitting of the response of each concentration at equilibrium to a steady-state affinity model using BIAevaluation. In order to investigate the influence of ionic strength, kinetic experiments were conducted in HBS-EP running buffers containing the desired NaCl concentration. In each case, analyte samples were made up in the appropriate running buffer prior to injection.

[2] = biological target: T1, recombinant human IGF-II (Insulin-like …); assay: SPR, IGF-II immobilised, kinetic fit; remark: listed apart in the source
Procedure: as §1
(§2) Following purification, the binding of each mutant construct to IGF2 was assessed by SPR and compared to the wild type domain 11. Sensorgrams were generated using biotinylated IGF2 immobilised to the cell surface and mutant domain 11 proteins as the free analyte (FIG. 4).

[3] = biological target: T1, recombinant human IGF-II (Insulin-like …); assay: SPR, IGF-II immobilised, major kinetic parameter kd1
Procedure: (§3) Kinetic experiments consisted of a two minute injection of analyte followed by a 100 s dissociation phase in running buffer, after which the binding surface was regenerated with a 2 minute injection of 2 M MgCl₂. A blank flow cell was used for in-line reference subtraction of changes due to differences in refractive index of running buffer versus sample and a buffer-only injection was used to subtract instrument noise and drift. Injections were performed in duplicate for each concentration and in a randomised order. Kinetic parameters were determined by global fitting of sensorgrams to a two-state (conformational change) binding model using BIAevaluation software version 4.0.1. In all cases the minor component made an insignificant contribution to the overall affinity and as such only the kinetic parameters of the major binding component were used. For each interaction the dissociation affinity constant (KD) was also calculated by fitting of the response of each concentration at equilibrium to a steady-state affinity model using BIAevaluation. […]
(§4) The affinity of versions of Fc-tagged domain 11 fusion proteins, and domain 11 constructs, for IGF-II were compared using surface plasmon resonance (BIAcore 3000). […] The Fc-tagged domain 11 kinetic data performed in triplicate generated sensorgrams that were analyzed using a bivalent analyte model.

[4] = biological target: T1, recombinant human IGF-II (Insulin-like …); assay: SPR, IGF-II immobilised, major kinetic parameters
Procedure: as §3, §4

[5] = biological target: T1, recombinant human IGF-II (Insulin-like …); assay: SPR, IGF-II immobilised, steady state
Procedure: as §1, §2

[6] = biological target: T1, recombinant human IGF-II (Insulin-like …); assay: SPR, IGF-II immobilised, major kinetic parameter ka1
Procedure: as §3, §4

[7] = biological target: T1, recombinant human IGF-II (Insulin-like …); assay: SPR, steady-state KD relative to wild type
Procedure: […]. Values are the mean±S.E.M. of three separate experiments.
as §1
Following purification, the binding of each mutant construct to IGF2 was assessed by SPR and compared to the wild type domain 11.

[8] = biological target: T1, recombinant human IGF-II (Insulin-like …); assay: SPR

T1 sequence (P01344 25-91 limits assumed): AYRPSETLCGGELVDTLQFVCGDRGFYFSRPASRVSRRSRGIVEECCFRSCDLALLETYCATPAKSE

Kd [1] | koff [1] | kon [1] | Kd [2] | koff [2] | kon [2] | koff [3] | Kd [4] | Kd [5] | kon [6] | Relative Affinity [7] | relative affinity increase over wild type [8] | Binder
102 nM | 0.053 s⁻¹ | 525000 M⁻¹ s⁻¹ | 102 nM | 0.053 s⁻¹ | 525000 M⁻¹ s⁻¹ | 0.0787 s⁻¹ | 119 nM | 103 nM | 662000 M⁻¹ s⁻¹ | 1 fold (wild type = 1.00) | – | wild type IGF2R domain 11 (amino acids 1511-1650) with C-terminal His6 tag, from Pichia pastoris (receptor, also called WT; wild type domain 11) NEHDDCQVTNPSTGHLFDLSSLSGRAGFTAAYSEKGLVYMSICGENENCPPGVGACFGQTRISVGKANKRLRYVDQVLQLVYKDGSPCPSKSGLSYKSVISFVCRPEAGPTNRPMLISLDKQTCTLFFSWHTPLACEQATHHHHHH
– | – | – | – | – | – | 0.0406 s⁻¹ | 20.5 nM | – | 2.02e+06 M⁻¹ s⁻¹ | – | – | IGF2R domain 11 E1544K (amino acids 1511-1650, C-terminal His6 tag, from Pichia pastoris) (receptor, also called enhanced mutant) NEHDDCQVTNPSTGHLFDLSSLSGRAGFTAAYSKKGLVYMSICGENENCPPGVGACFGQTRISVGKANKRLRYVDQVLQLVYKDGSPCPSKSGLSYKSVISFVCRPEAGPTNRPMLISLDKQTCTLFFSWHTPLACEQATHHHHHH
– | – | – | 36 nM | 0.033 s⁻¹ | 934000 M⁻¹ s⁻¹ | – | – | 37 nM | – | 2.79 fold (wild type = 1.00) | ~2.5 fold | IGF2R domain 11 E1544A (amino acids 1511-1650, C-terminal His6 tag, from Pichia pastoris) (receptor) NEHDDCQVTNPSTGHLFDLSSLSGRAGFTAAYSAKGLVYMSICGENENCPPGVGACFGQTRISVGKANKRLRYVDQVLQLVYKDGSPCPSKSGLSYKSVISFVCRPEAGPTNRPMLISLDKQTCTLFFSWHTPLACEQATHHHHHH
